# Reference: article PMC3045599
# Target: NrdA-a/NrdA-b heterodimer of phage Aeh1, wild type (phage Aeh1)
# Experiment: GEMMA
substance,measurement,value
"NrdA-a/NrdA-b heterodimer of phage Aeh1, wild type (complex)",stoichiometry N,2
